# Measurements as given in doi:10.1101/2025.01.09.632146.
# Molecular target: AtSAR1c-GFP (Arabidopsis thaliana) (UniProt O04834)
# Assay: co-IP
# Sequence of UniProt O04834 (O04834 whole entry): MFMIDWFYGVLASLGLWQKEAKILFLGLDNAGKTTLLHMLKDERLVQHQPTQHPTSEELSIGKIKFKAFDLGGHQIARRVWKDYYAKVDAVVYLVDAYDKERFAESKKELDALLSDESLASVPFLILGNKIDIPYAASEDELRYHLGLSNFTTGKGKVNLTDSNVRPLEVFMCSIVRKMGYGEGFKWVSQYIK
substance,measurement,value
endogenous AtPHF1 (from UniProt Q8GYE0 1-398) (natural protein),fold co-immunoprecipitated against AtSAR1b[H74L]-CFP,4 fold
same,fold co-immunoprecipitated against GFP,3 fold
same,"fold co-immunoprecipitated against GFP, normalised, Pi deficiency",30 fold
